Laboratory results taken from the supplement of paper PMC10126150.
± gives the standard deviation of the averaged measurements.

Tested on: ATP
Assay: switch fluorescence ratio, 500 uM ATP over buffer (Cy3 cluster intensity, sum of 5 cycles each) (fold (ratio)); higher = stronger signal-on switching upon ATP binding; sequences stand for … in TCGTCGGCAGCGTCAGATGTGTATAAGAGACAGTTTTTTTTTTTTTTTTTTTTTTTTT…TC
Details: aptamer strand: ATP DNA aptamer (quencher-CACCTGGGGGAGTATTGCGGAGGAAGG + anchor), 100 nM annealed; ATP concentration: 500 uM
Method in brief: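 The fluorescence ratio divides summed target-cycle Cy3 intensity by summed buffer-cycle Cy3 intensity for each cluster and is averaged per switch-domain sequence. Cy3-labelled switching-strand clusters on a modified Illumina MiSeq flow-cell were annealed to 100 nM quencher-labelled ATP aptamer, then imaged in selection buffer and again after 15 min with 500 uM ATP at 22 °C. Five such cycles were run, with NaOH stripping and re-annealing between them, and clusters outside 100-1000 RFU were excluded.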
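Also: ATP exposure 15 min at 22 °C before imaging.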

Sequence | switch fluorescence ratio
TTGCTCAACT | 1 ± 0.026
TTGCTCCCAC | 1.62 ± 0.81
TTGCTCGCTC | 1.16 ± 0.084
TTGCTCGTCG | 1.04 ± 0.0046
TTGCTCTAGC | 1.03 ± 0.018
TTGCTGATGC | 1.02 ± 0.039
TTGCTGGAAG | 0.978 ± 0.035
TTGCTGTCGG | 0.985 ± 0.038
TTGCTGTTGC | 1.001 ± 0.0095
TTGCTTAAAC | 1.02 ± 0.025
TTGCTTACGG | 1.02 ± 0.013
TTGCTTACTT | 0.996 ± 0.019
TTGCTTCGGG | 0.968 ± 0.028
TTGCTTGCGG | 0.991 ± 0.041
TTGCTTGGGC | 1.02 ± 0.04
TTGCTTTGTA | 0.943 ± 0.018
TTGCTTTTAA | 0.991 ± 0.013
TTGGAAAGGG | 0.985 ± 0.016
TTGGAAAGGT | 1.1 ± 0.16
TTGGAAGTC | 1.04 ± 0.026
TTGGAAGTGG | 0.9995 ± 0.0088
TTGGAATGGT | 1.04 ± 0.029
TTGGAATTGA | 0.992 ± 0.012
TTGGACAGGG | 1 ± 0.02
TTGGACATGT | 0.989 ± 0.027
TTGGACTATA | 1.02 ± 0.043

Sequence | switch fluorescence ratio
TTGGACTGGT | 1.04 ± 0.039
TTGGAGAAAT | 1.05 ± 0.025
TTGGAGATAG | 1.07 ± 0.1
TTGGAGCGTG | 1.003 ± 0.0015
TTGGAGGAAT | 1.02 ± 0.014
TTGGAGGGCT | 0.978 ± 0.0032
TTGGAGTACT | 1.09 ± 0.24
TTGGAGTATA | 1.93 ± 0.28
TTGGAGTTGG | 0.976 ± 0.043
TTGGATACCT | 1.05 ± 0.13
TTGGATACGT | 1.03 ± 0.091
TTGGATAGTT | 1.09 ± 0.16
TTGGATCAAC | 1.04 ± 0.051
TTGGATGCCT | 1.01 ± 0.047
TTGGATGTGG | 1.02 ± 0.022
TTGGATTATG | 1.01 ± 0.012
TTGGATTCAT | 0.995 ± 0.016
TTGGATTGAC | 1.06 ± 0.025
TTGGCAAATG | 0.988 ± 0.025
TTGGCAGGGA | 0.998 ± 0.018
TTGGCATACG | 1.06 ± 0.034
TTGGCATACT | 2.64 ± 2.2
TTGGCATATG | 1.07 ± 0.085
TTGGCATCAC | 1.06 ± 0.045
TTGGCCGGAG | 1.001 ± 0.0084
TTGGCCGGGT | 1.042 ± 0.0059

Sequence | switch fluorescence ratio
TTGGCCTAAA | 0.954 ± 0.04
TTGGCCTCGA | 1.01 ± 0.039
TTGGCCTTAG | 0.972 ± 0.015
TTGGCGAGGG | 1.008 ± 0.0081
TTGGCGGCTT | 1.02 ± 0.032
TTGGCGGGAC | 0.9819 ± 0.0036
TTGGCGGGCA | 0.998 ± 0.027
TTGGCGTAAG | 1.03 ± 0.045
TTGGCGTATT | 1.01 ± 0.071
TTGGCGTCCG | 0.988 ± 0.047
TTGGCTAATT | 1 ± 0.034
TTGGGAAGTA | 0.985 ± 0.016
TTGGGACGGT | 0.9972 ± 0.0076
TTGGGAGGAG | 1.01 ± 0.025
TTGGGAGGCG | 0.97 ± 0.039
TTGGGATGTG | 0.986 ± 0.053
TTGGGATTAG | 1.01 ± 0.029
TTGGGCATTT | 1.05 ± 0.089
TTGGGCCCAA | 1 ± 0.041
TTGGGCCGGG | 0.991 ± 0.02
TTGGGCCTGA | 1.002 ± 0.0032
TTGGGCGCAG | 0.967 ± 0.019
TTGGGCGTGT | 0.987 ± 0.021
TTGGGCTAGG | 1 ± 0.0054
TTGGGCTTTT | 0.996 ± 0.017
TTGGGGAAAC | 0.99 ± 0.029

Sequence | switch fluorescence ratio
TTGGGGACGA | 0.997 ± 0.032
TTGGGGACTT | 1.02 ± 0.07
TTGGGGAGCT | 1.04 ± 0.014
TTGGGGATAA | 1.07 ± 0.09
TTGGGGATAG | 1.11 ± 0.17
TTGGGGCCAG | 1.09 ± 0.12
TTGGGGCCGT | 1.04 ± 0.047
TTGGGGCTTA | 1.03 ± 0.038
TTGGGGCTTT | 1.02 ± 0.056
TTGGGGGAGA | 1.02 ± 0.038
TTGGGGGAGG | 0.989 ± 0.021
TTGGGGGATA | 1.09 ± 0.24
TTGGGGGG | 1.004 ± 0.0069
TTGGGGGGGA | 1.02 ± 0.13
TTGGGGGGGC | 0.997 ± 0.039
TTGGGGGTCT | 0.968 ± 0.044
TTGGGGTAGA | 1.05 ± 0.031
TTGGGGTATA | 1.03 ± 0.055
TTGGGGTATG | 1.01 ± 0.012
TTGGGGTT | 0.9662 ± 0.0019
TTGGGGTTTA | 1.03 ± 0.026
TTGGGTAATG | 1.01 ± 0.027
TTGGGTACAT | 1.02 ± 0.011
TTGGGTACGT | 1.02 ± 0.026
TTGGGTAGCC | 1.03 ± 0.032
TTGGGTAGGA | 1.03 ± 0.04

Sequence | switch fluorescence ratio
TTGGGTATAA | 0.989 ± 0.03
TTGGGTATAT | 0.979 ± 0.037
TTGGGTATGC | 0.99 ± 0.046
TTGGGTCCGG | 1.03 ± 0.038
TTGGGTCGTT | 0.994 ± 0.014
TTGGGTCTGG | 0.965 ± 0.02
TTGGGTGAGC | 0.994 ± 0.024
TTGGGTGGC | 0.999 ± 0.011
TTGGGTGTGG | 1.01 ± 0.037
TTGGGTTCAC | 0.988 ± 0.01
TTGGGTTGGC | 1.02 ± 0.043
TTGGGTTGGT | 1.01 ± 0.049
TTGGTAAAGA | 1 ± 0.013
TTGGTAAATG | 0.999 ± 0.012
TTGGTAATGG | 1.04 ± 0.051
TTGGTACGGA | 0.986 ± 0.019
TTGGTAGAAA | 0.982 ± 0.024
TTGGTAGCAA | 1.81 ± 0.41
TTGGTAGTTT | 1.022 ± 0.0061
TTGGTATAA | 0.999 ± 0.021
TTGGTATCTT | 0.999 ± 0.025
TTGGTATGAC | 0.988 ± 0.076
TTGGTATGAG | 0.997 ± 0.013
TTGGTATTTT | 0.989 ± 0.018
TTGGTCCGTG | 1.01 ± 0.071
TTGGTCCGTT | 1.02 ± 0.045

Sequence | switch fluorescence ratio
TTGGTGAACG | 0.989 ± 0.024
TTGGTGATGA | 1.02 ± 0.023
TTGGTGATTG | 0.976 ± 0.014
TTGGTGCCGC | 0.975 ± 0.017
TTGGTGCGGA | 0.975 ± 0.056
TTGGTGCTGG | 1.01 ± 0.027
TTGGTGGGGG | 0.989 ± 0.023
TTGGTGTGGC | 0.9967 ± 0.0092
TTGGTGTGTA | 1.002 ± 0.0089
TTGGTGTGTG | 0.958 ± 0.022
TTGGTGTTAG | 0.973 ± 0.031
TTGGTGTTGC | 0.9916 ± 0.0057
TTGGTGTTTA | 1.01 ± 0.022
TTGGTTAAGA | 0.999 ± 0.04
TTGGTTACGG | 1.014 ± 0.0041
TTGGTTAGCC | 0.975 ± 0.078
TTGGTTATCT | 1.01 ± 0.035
TTGGTTCATG | 0.998 ± 0.015
TTGGTTCATT | 1.01 ± 0.021
TTGGTTGAAT | 0.998 ± 0.011
TTGGTTTAAT | 1.01 ± 0.034
TTGGTTTCCT | 1.02 ± 0.038
TTGTAAACGA | 1.01 ± 0.042
TTGTAACCAG | 1.0005 ± 0.001
TTGTAAGATT | 0.987 ± 0.0048
TTGTAAGTAG | 0.979 ± 0.012

Sequence | switch fluorescence ratio
TTGTAAGTTT | 0.985 ± 0.049
TTGTAATAGG | 1.27 ± 0.4
TTGTAATCAG | 0.966 ± 0.045
TTGTAATTAA | 0.9963 ± 0.0096
TTGTACTACC | 1.1603 ± 0.00036
TTGTAGAAAA | 1.3 ± 0.37
TTGTAGGCGA | 1.09 ± 0.0026
TTGTAGGTAT | 0.999 ± 0.069
TTGTAGTCTT | 0.991 ± 0.022
TTGTATATGG | 1.05 ± 0.022
TTGTATCAGT | 1.01 ± 0.024
TTGTATTCTT | 1.04 ± 0.088
TTGTATTTGG | 1.02 ± 0.043
TTGTCCCTGC | 1.016 ± 0.0054
TTGTCGGATT | 0.991 ± 0.021
TTGTCTGGGG | 0.985 ± 0.03
TTGTGAGTGG | 0.976 ± 0.017
TTGTGCCTAT | 1.005 ± 0.0071
TTGTGCGAGA | 0.989 ± 0.013
TTGTGGAAGC | 1.01 ± 0.025
TTGTGGCAAC | 1.24 ± 0.3
TTGTGGGAAT | 1.05 ± 0.077
TTGTGGGGGA | 1.02 ± 0.046
TTGTGGTACG | 0.981 ± 0.041
TTGTGGTGTT | 0.986 ± 0.023
TTGTGTAGGG | 1.01 ± 0.017

Sequence | switch fluorescence ratio
TTGTGTAGTC | 1.005 ± 0.0091
TTGTGTC | 1.06 ± 0.023
TTGTGTCTGC | 0.999 ± 0.011
TTGTGTGGTG | 0.98 ± 0.011
TTGTGTGTTT | 0.989 ± 0.024
TTGTGTTTTC | 0.9971 ± 0.006
TTGTTA | 0.964 ± 0.044
TTGTTAAATA | 0.98 ± 0.011
TTGTTAAATT | 0.98 ± 0.018
TTGTTAGAAT | 1.038 ± 0.0047
TTGTTAGCCC | 1.026 ± 0.0026
TTGTTAGCCT | 1.05 ± 0.019
TTGTTAGGGC | 1.07 ± 0.017
TTGTTAGGGG | 0.986 ± 0.019
TTGTTATTAG | 1.03 ± 0.047
TTGTTATTTT | 1 ± 0.03
TTGTTCAAGT | 0.998 ± 0.043
TTGTTCAGGG | 0.99 ± 0.013
TTGTTCGAGG | 0.988 ± 0.026
